Results taken from patent US11505576B2, “Polypeptides based on a scaffold” (AFFIBODY AB, priority 2018, dated 2022).
Values belong to the substance of their own block, whether it stands above or below them.

What was measured:
[1] = Fraction of soluble product on expression in E. coli, estimated from SDS-PAGE; format: physicochemical; conditions: for Est soluble fraction: Table 9, mutation study 5
Description: E. coli T7E2 cells were transformed with plasmids containing the gene fragment of each respective Y variant. The resulting recombinant strains were generally cultivated in media supplemented with 50 μg/ml kanamycin at 30-37° C. in 50 ml scale using the EnPresso protocol (Enpresso GmbH). In order to induce protein expression, isopropyl-β-D-1-thiogalactopyranoside (IPTG) was added to a final concentration of 0.5 mM at an optical density at 600 nm (OD600) of approximately 10. After induction, the cultures were incubated for 16 h. The cells were harvested by centrifugation. Alternatively, the culture was performed at 37° C. in 980 ml of TSB-YE medium (tryptic soy broth 30 g/l supplemented with yeast extract 5 g/l) supplemented with 50 μg/ml kanamycin, and protein expression induced with 0.2 mM IPTG at OD600=2, followed by incubation for 5 h before harvesting of the cells by centrifugation. The total yield as well as the fraction of soluble and insoluble product of the respective Y variant was estimated based on SDS-PAGE analysis.

[2] = Circular dichroism spectroscopy analysis (CD spectra, variable temperature measurement, refolding); format: physicochemical
Description: The respective Y variant was diluted to 0.5 mg/ml in PBS. A CD spectrum at 250-195 nm was obtained at 20° C. In addition, a variable temperature measurement (VTM) was performed to determine the melting temperature (Tm). In the VTM, absorbance was measured at 221 nm while the temperature was raised from 20° C. to 90° C. with a temperature gradient of 5° C./min. A new CD spectrum was obtained at 20° C. after the heating procedure, in order to study the refolding ability of the Y variants. The CD measurements were performed on a Jasco J-810 spectropolarimeter (Jasco Scandinavia AB) using a cell with an optical path length of 1 mm.
(§1) Produced Y variants were subjected to CD and SPR analyses according to the methods described in Example 1.
(§2) The Y variants were cloned, produced and characterized according to the general methods described in Example 1. Produced Y variants with point mutations and/or N-terminal or C-terminal extensions were subjected to CD and SPR analyses as described in Example 1.
(§3) Produced Y variants were subjected to CD and SPR analyses according to the methods described in Example 1. In addition, CD spectra of selected IL-6 binding variants were also recorded at 60, 70, 80 and 90° C.
(§4) The Y variants were cloned, produced and characterized according to the general methods described in Example 1. Produced Y variants with point mutations were subjected to CD and SPR analyses as described in Example 1. In addition, CD spectra of the IL-6 binding variants were also recorded at 60, 70, 80 and 90° C.

insulin = molecular target: T1, insulin (Homo sapiens, UniProt P01308); test: Kinetic analysis using surface plasmon resonance (Biacore T200), immobilized insulin; format: binding
T1 construct: purchased Roche 1376497
T1 sequence (P01308 25-54 limits assumed): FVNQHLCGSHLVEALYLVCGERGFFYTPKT
T1 sequence (P01308 90-110 limits assumed): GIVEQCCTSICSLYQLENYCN
Description: Kinetic constants (ka and kd) and affinities (KD) were determined for His6-tagged Y variants using a Biacore T200 instrument (GE Healthcare). Target proteins C4, IL-6 and insulin, respectively, were immobilized in separate flow cells on the carboxylated dextran layer of different CM5 chip surfaces (GE Healthcare). Immobilization was performed using amine coupling chemistry according to the manufacturer's protocol and PBS pH 7.4 supplemented with 0.1 Tween20 (PBST 0.1%) as running buffer. The ligand immobilization levels on the surfaces were 3280-8830 RU for C4, 495-1184 RU for IL-6, and 270-282 RU for insulin. One flow cell surface on each chip was activated and deactivated for use as blank during analyte injections. In the kinetic experiment, PBST 0.1% was used as running buffer at a flow rate of 30 μl/min. The analytes, i.e. Y variants, were each diluted in PBST 0.1 buffer at concentrations of 1000, 500, 100, 50 and 10 nM and injected for 5 min, followed by dissociation in running buffer for 3 min. After dissociation, the surfaces were regenerated with one injection of 30 μl 10 mM HCl. Kinetic constants were calculated from the sensorgrams using the Langmuir 1:1 model of Biacore T200 Evaluation software 2.0 (GE Healthcare).
as §1, §2, §3, §4

[3] = Table 9, mutation study 5, MGSSHHHHHHGSS-[Y#####]-A
[4] = Table 7, Ylib002Naive.I selection, MGSSHHHHHHGSS-[Y#####]-A
[5] = Table 7, MGSSHHHHHHGSS-[Y#####]-A
[6] = Table 8, mutation study 4, MGSSHHHHHHGSS-[Y#####]
[7] = Table 3, mutation study 1, MGSSHHHHHHGSS-[Y#####]
[8] = Table 4, mutation study 2, MGSSHHHHHHGSS-[Y#####]

Substance: Y02691: C4 binding Y variant, Y00792 with K15Y Q26E, SEQ ID NO:46 (LAEAKEAAIAELDSYGVGADLIKKIEQASSVEGVQFWKQEILAQLPA; Engineered C4 binding Y variant)
Est soluble fraction ([1]; MGSSHHHHHHGSS-[Y#####]-A): 100% | Tm [2, 3]: 58 °C

Kd (insulin; [5]): 310 nM | ka (insulin; [5]): 12000 M⁻¹ s⁻¹ | kd (insulin; [5]): 0.0036 s⁻¹
Substance: Y00361: insulin binding Y variant from Ylib002Naive.I, SEQ ID NO:144 (LAEAKEAAIAELDSKGVGAKFIKMIQSAKLVETVQLLKQAILADLPA; Engineered insulin binding Y variant)
Estimated soluble fraction [1, 4]: 100% | Tm [2, 5]: 52 °C

Kd (insulin; [3]): 540 nM | ka (insulin; [3]): 290000 M⁻¹ s⁻¹ | kd (insulin; [3]): 0.16 s⁻¹
Substance: Y02714: insulin binding Y variant, Y00310 with Q26E, SEQ ID NO:154 (LAEAKEAAIAELDSKGVGAYQIKFIEIAHTVEEVQLMKQAILADLPA; Engineered insulin binding Y variant)
Est soluble fraction ([1]; MGSSHHHHHHGSS-[Y#####]-A): 100% | Tm [2, 3]: 53 °C

Substance: Y02687: C4 binding Y variant, Y00792 with Q26E, SEQ ID NO:42 (LAEAKEAAIAELDSKGVGADLIKKIEQASSVEGVQFWKQEILAQLPA; Engineered C4 binding Y variant)
Est soluble fraction ([1]; MGSSHHHHHHGSS-[Y#####]-A): 100% | Tm [2, 3]: 57 °C

Kd (insulin; [3]): 7.6 nM | ka (insulin; [3]): 2.7e+07 M⁻¹ s⁻¹ | kd (insulin; [3]): 0.21 s⁻¹
Substance: Y02716: insulin binding Y variant, Y00301 with K15Y Q26E, SEQ ID NO:156 (LAEAKEAAIAELDSYGVGARQIKWIEQAKSVEVVQWLKQAILADLPA; Engineered insulin binding Y variant)
Est soluble fraction ([1]; MGSSHHHHHHGSS-[Y#####]-A): 100% | Tm [2, 3]: 58 °C

Substance: Y00356: insulin binding Y variant, SEQ ID NO:140, template of mutation study 4 (LAEAKEAAIAELDSKGVGAKYIKMIQHAHYVEVVQWLKQAILAHLP; Engineered insulin binding Y variant)
Estimated soluble fraction [1, 6]: 43% | Tm [2, 6]: 57 °C

Substance: Y02688: C4 binding Y variant, Y02330 with I9L, SEQ ID NO:43 (LAEAKEAALAELDSKGVGAELIKKIQHAESVEGVQFWKQEILAYLPA; Engineered C4 binding Y variant)
Est soluble fraction ([1]; MGSSHHHHHHGSS-[Y#####]-A): 100% | Tm [2, 3]: 50 °C

Substance: Y02690: C4 binding Y variant, Y02330 with Q26E, SEQ ID NO:45 (LAEAKEAAIAELDSKGVGAELIKKIEHAESVEGVQFWKQEILAYLPA; Engineered C4 binding Y variant)
Est soluble fraction ([1]; MGSSHHHHHHGSS-[Y#####]-A): 100% | Tm [2, 3]: 53 °C

Substance: Y02689: C4 binding Y variant, Y02330 with K15Y, SEQ ID NO:44 (LAEAKEAAIAELDSYGVGAELIKKIQHAESVEGVQFWKQEILAYLPA; Engineered C4 binding Y variant)
Est soluble fraction ([1]; MGSSHHHHHHGSS-[Y#####]-A): 100% | Tm [2, 3]: 53 °C

Substance: Y02693: C4 binding Y variant, Y02330 with K15Y Q26E, SEQ ID NO:48 (LAEAKEAAIAELDSYGVGAELIKKIEHAESVEGVQFWKQEILAYLPA; Engineered C4 binding Y variant)
Est soluble fraction ([1]; MGSSHHHHHHGSS-[Y#####]-A): 100% | Tm [2, 3]: 52 °C

Substance: Y02685: C4 binding Y variant, Y00792 with I9L, SEQ ID NO:40 (LAEAKEAALAELDSKGVGADLIKKIQQASSVEGVQFWKQEILAQLPA; Engineered C4 binding Y variant)
Est soluble fraction ([1]; MGSSHHHHHHGSS-[Y#####]-A): 100% | Tm [2, 3]: 53 °C

Substance: Y02692: C4 binding Y variant, Y02309 with K15Y Q26E, SEQ ID NO:47 (LAEAKEAAIAELDSYGVGADLIKKIEKAESVEGVQFWKQEILATLPA; Engineered C4 binding Y variant)
Est soluble fraction ([1]; MGSSHHHHHHGSS-[Y#####]-A): 100% | Tm [2, 3]: 57 °C

Substance: Y02674: insulin binding Y variant, Y00356 with K15Y, SEQ ID NO:146 (LAEAKEAAIAELDSYGVGAKYIKMIQHAHYVEVVQWLKQAILAHLP; Engineered insulin binding Y variant)
Estimated soluble fraction [1, 6]: 40% | Tm [2, 6]: 55 °C

Kd (insulin; Table 2, His6-tagged Y variant, MGSSHHHHHHGSS-[Y#####]-ASGSVD): 110 nM
Substance: Y00125: insulin binding Y variant, SEQ ID NO:106; differs from Y00032 by N in position 9 (LAEAKEAANAELDSKGVGAYQKSFIELAKSVEHVELLKEAILADLP; Engineered insulin binding Y variant)
Tm ([2]; Table 2, Ylib001Naive.I selection, MGSSHHHHHHGSS-[Y#####]-ASGSVD, 0.5 mg/ml in PBS, 221 nm, 20-90° C.): 35 °C

Substance: Y02686: C4 binding Y variant, Y00792 with K15Y, SEQ ID NO:41 (LAEAKEAAIAELDSYGVGADLIKKIQQASSVEGVQFWKQEILAQLPA; Engineered C4 binding Y variant)
Est soluble fraction ([1]; MGSSHHHHHHGSS-[Y#####]-A): 100% | Tm [2, 3]: 59 °C

Kd (insulin; [7]): 47 nM
Substance: Y00271: insulin binding Y variant, Y00032 with E26Q, SEQ ID NO:118 (LAEAKEAAIAELDSKGVGAYQKSFIQLAKSVEHVELLKEAILADLP; Engineered insulin binding Y variant)
Tm [2, 7]: 49 °C

Substance: Y02676: insulin binding Y variant, Y00356 with Q26E, SEQ ID NO:147 (LAEAKEAAIAELDSKGVGAKYIKMIEHAHYVEVVQWLKQAILAHLP; Engineered insulin binding Y variant)
Estimated soluble fraction [1, 6]: 55% | Tm [2, 6]: 56 °C

Substance: Y02310: C4 binding Y variant from Ylib002Naive.I, SEQ ID NO:36 (LAEAKEAAIAELDSKGVGADLIKKIQYADTVEGVQFWKQEILAWLPA; Engineered C4 binding Y variant)
Estimated soluble fraction [1, 4]: 100% | Tm [2, 5]: 56 °C

Kd (insulin; [8]): 490 nM
Substance: Y00294: insulin binding Y variant, Y00270 with E35Q + A43K, SEQ ID NO:126 (LAEAKEAAIAELDSKGVGAYQIKFIELAKSVEHVQLLKEAILKDLP; Engineered insulin binding Y variant)
Tm [2, 8]: 54 °C

Kd (insulin; [8]): 490 nM
Substance: Y00293: insulin binding Y variant, Y00270 with E35Q + E39Q, SEQ ID NO:125 (LAEAKEAAIAELDSKGVGAYQIKFIELAKSVEHVQLLKQAILADLP; Engineered insulin binding Y variant)
Tm [2, 8]: 56 °C

Kd (insulin; [7]): 59 nM
Substance: Y00267: insulin binding Y variant, Y00032 with A19E, SEQ ID NO:114 (LAEAKEAAIAELDSKGVGEYQKSFIELAKSVEHVELLKEAILADLP; Engineered insulin binding Y variant)
Tm [2, 7]: 48 °C

Kd (insulin; [7]): 59 nM
Substance: Y00275: insulin binding Y variant, Y00032 with E39Q, SEQ ID NO:122 (LAEAKEAAIAELDSKGVGAYQKSFIELAKSVEHVELLKQAILADLP; Engineered insulin binding Y variant)
Tm [2, 7]: 54 °C

Substance: Y02683: insulin binding Y variant, Y00356 with I9L, SEQ ID NO:148 (LAEAKEAALAELDSKGVGAKYIKMIQHAHYVEVVQWLKQAILAHLP; Engineered insulin binding Y variant)
Estimated soluble fraction [1, 6]: 92%
